Source: patent publication US20150105316A1 (TREVENA, published 2015)
Where no end group is shown, it is not given here. [ ]: non-standard residue; d: D form. Ac6c = NC1(C(=O)O)CCCCC1; Sar = CNCC(=O)O

T1: human angiotensin 2 type 1 receptor (human, UniProt P30556 1-359)
T1 sequence (looked up): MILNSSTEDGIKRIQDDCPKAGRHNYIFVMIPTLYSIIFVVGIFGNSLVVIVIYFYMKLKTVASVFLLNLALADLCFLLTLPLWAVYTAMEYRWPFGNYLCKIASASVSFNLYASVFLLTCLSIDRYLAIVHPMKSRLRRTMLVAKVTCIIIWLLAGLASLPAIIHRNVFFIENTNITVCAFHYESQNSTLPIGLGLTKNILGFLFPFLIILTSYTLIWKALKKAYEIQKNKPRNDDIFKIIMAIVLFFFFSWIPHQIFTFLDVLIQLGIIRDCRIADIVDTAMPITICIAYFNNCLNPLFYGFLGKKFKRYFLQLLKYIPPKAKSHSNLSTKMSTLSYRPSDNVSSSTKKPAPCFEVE

T2: rat angiotensin 2 type 1 receptor (rat, UniProt P25095 1-359)
T2 sequence (looked up): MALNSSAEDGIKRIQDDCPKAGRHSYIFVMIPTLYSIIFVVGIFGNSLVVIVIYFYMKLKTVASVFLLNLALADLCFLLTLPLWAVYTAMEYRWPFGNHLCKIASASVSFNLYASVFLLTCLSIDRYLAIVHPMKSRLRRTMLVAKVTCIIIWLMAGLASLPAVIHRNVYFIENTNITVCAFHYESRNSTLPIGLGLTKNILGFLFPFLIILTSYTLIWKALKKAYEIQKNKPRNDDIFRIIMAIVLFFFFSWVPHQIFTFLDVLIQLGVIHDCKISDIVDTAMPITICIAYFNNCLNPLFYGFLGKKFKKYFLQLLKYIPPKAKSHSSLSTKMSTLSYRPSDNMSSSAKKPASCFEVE


Experiments:
Assay in all cases: cell-based or functional assay
[1] = molecular target: T1, human angiotensin 2 type 1 receptor
[2] = molecular target: T2, rat angiotensin 2 type 1 receptor
[3] = molecular target: T1, human angiotensin 2 type 1 receptor; remark: listed apart in the source
[4] = molecular target: T2, rat angiotensin 2 type 1 receptor; remark: listed apart in the source

Row | Binder | beta-arrestin2 assay EC50 [1] [nM] | beta-arrestin2 assay Span [1] | beta-arrestin2 assay pEC50 [1] | beta-arrestin2 assay EC50 [2] [nM] | beta-arrestin2 assay Span [2] | beta-arrestin2 assay pEC50 [2] | IP1 G-protein assay EC50 [3] [nM] | IP1 G-protein assay Span [3] | IP1 G-protein assay pEC50 [3] | IP1 G-protein assay EC50 [4] [nM] | IP1 G-protein assay pEC50 [4] | IP1 G-protein assay Span [4]
1 | [Sar]RVYPHPS [SEQ ID NO: 8 (Sar-Arg-Val-Tyr-Pro-His-Pro-Ser)] | > 3.2 | < 101 | < 8.5 | > 3.2 | < 105 | < 8.5 | 6310 | < 103 | < 9.2 | > 0.6 | > 9.2 | –
2 | [Sar]RVYPHPV [SEQ ID NO: 6 (Sar-Arg-Val-Tyr-Pro-His-Pro-Val)] | > 3.2 | < 101 | < 8.5 | > 3.2 | < 105 | < 8.5 | 63.1 | < 103 | < 9.2 | > 0.6 | < 9.2 | < 104
3 | [Sar]RVYPHPI [SEQ ID NO: 4 (Sar-Arg-Val-Tyr-Pro-His-Pro-Ile)] | > 3.2 | < 101 | < 8.5 | > 3.2 | < 105 | < 8.5 | 2.5 | < 103 | < 9.2 | > 0.6 | > 9.2 | –
4 | [Sar]RVYPHPF [SEQ ID NO: 10 (Sar-Arg-Val-Tyr-Pro-His-Pro-Phe)] | > 3.2 | < 101 | < 8.5 | 3.2 | > 105 | 8.5 | 1.3 | < 103 | < 9.2 | > 0.6 | < 9.2 | < 104
5 | [Sar]RVYPHPT [SEQ ID NO: 7 (Sar-Arg-Val-Tyr-Pro-His-Pro-Thr)] | > 3.2 | < 101 | < 8.5 | > 3.2 | < 105 | < 8.5 | > 10000 | – | > 9.2 | > 0.6 | > 9.2 | –
6 | [Sar]RVY[Ac6c]HPL [SEQ ID NO: 12 (Sar-Arg-Val-Tyr-cyHex-His-Pro-Leu)] | > 3.2 | < 101 | < 8.5 | > 3.2 | < 105 | < 8.5 | > 1.3 | < 103 | < 9.2 | > 0.6 | < 9.2 | < 104
7 | [Sar]RVYPHPL [SEQ ID NO: 5 (Sar-Arg-Val-Tyr-Pro-His-Pro-Leu)] | > 3.2 | < 101 | < 8.5 | > 3.2 | < 105 | < 8.5 | 3.2 | < 103 | < 9.2 | > 0.6 | < 9.2 | < 104
8 | [Sar]RVYPHPM [SEQ ID NO: 9 (Sar-Arg-Val-Tyr-Pro-His-Pro-Met)] | > 3.2 | < 101 | < 8.5 | > 3.2 | < 105 | < 8.5 | 5 | < 103 | < 9.2 | > 0.6 | < 9.2 | < 104
9 | [Sar]RVY[Ac6c]HPI [SEQ ID NO: 11 (Sar-Arg-Val-Tyr-cyHex-His-Pro-Ile)] | > 3.2 | < 101 | < 8.5 | > 3.2 | < 105 | < 8.5 | > 1.3 | < 103 | < 9.2 | > 0.6 | > 9.2 | –

Now from value to binder:

Row | beta-arrestin2 assay EC50 [1] [nM] | beta-arrestin2 assay Span [1] | beta-arrestin2 assay pEC50 [1] | beta-arrestin2 assay EC50 [2] [nM] | beta-arrestin2 assay Span [2] | beta-arrestin2 assay pEC50 [2] | IP1 G-protein assay EC50 [3] [nM] | IP1 G-protein assay Span [3] | IP1 G-protein assay pEC50 [3] | IP1 G-protein assay EC50 [4] [nM] | IP1 G-protein assay pEC50 [4] | IP1 G-protein assay Span [4] | Binder
10 | > 3.2 | < 101 | < 8.5 | > 3.2 | < 105 | < 8.5 | > 1.3 | – | > 9.2 | > 0.6 | > 9.2 | – | [Sar]RVY[Ac6c]HPT [SEQ ID NO: 14 (Sar-Arg-Val-Tyr-cyHex-His-Pro-Thr)]
11 | > 3.2 | < 101 | < 8.5 | > 3.2 | < 105 | < 8.5 | > 1.3 | < 103 | < 9.2 | > 0.6 | < 9.2 | < 104 | [Sar]RVY[Ac6c]HPM [SEQ ID NO: 16 (Sar-Arg-Val-Tyr-cyHex-His-Pro-Met)]
12 | > 3.2 | > 101 | < 8.5 | 3.2 | < 105 | 8.5 | < 1.3 | < 103 | < 9.2 | > 0.6 | < 9.2 | > 104 | [Sar]RVY[Ac6c]HPF [SEQ ID NO: 17 (Sar-Arg-Val-Tyr-cyHex-His-Pro-Phe)]
13 | > 3.2 | < 101 | < 8.5 | > 3.2 | < 105 | < 8.5 | > 1.3 | – | > 9.2 | > 0.6 | < 9.2 | < 104 | [Sar]RVY[Ac6c]HPS [SEQ ID NO: 15 (Sar-Arg-Val-Tyr-cyHex-His-Pro-Ser)]
14 | > 3.2 | < 101 | < 8.5 | > 3.2 | < 105 | < 8.5 | > 1.3 | < 103 | < 9.2 | > 0.6 | < 9.2 | < 104 | [Sar]RVYPHP[dA] [SEQ ID NO: 60 (Sar-Arg-Val-Tyr-Pro-His-Pro-D-Ala)]
